Results taken from patent publication US6548266B1, “Assay for detecting the enzymatic activity of a phosphorylation enzyme using enhanced signal generation” (Kinetek Pharmaceuticals, Inc., priority 1999, dated 2003).

Legend:
[1] = biological target: T1, ERK1 (Homo sapiens, UniProt P27361); test: Phosphorylation of peptide substrate in solution, spotted on phosphocellulose plate, scintillation counting; format: biochemical; conditions: for Enhancing effect of polymeric carrier on the substrate activity: SEK1-CT conjugated to the polymer, result in words; for Radioactivity (cpm), polymer effect on the phosphorylation of SEK1-CT by ERK1: SEK1-CT conjugated to the polymer named in the row
T1 sequence (P27361 whole entry, species assumed): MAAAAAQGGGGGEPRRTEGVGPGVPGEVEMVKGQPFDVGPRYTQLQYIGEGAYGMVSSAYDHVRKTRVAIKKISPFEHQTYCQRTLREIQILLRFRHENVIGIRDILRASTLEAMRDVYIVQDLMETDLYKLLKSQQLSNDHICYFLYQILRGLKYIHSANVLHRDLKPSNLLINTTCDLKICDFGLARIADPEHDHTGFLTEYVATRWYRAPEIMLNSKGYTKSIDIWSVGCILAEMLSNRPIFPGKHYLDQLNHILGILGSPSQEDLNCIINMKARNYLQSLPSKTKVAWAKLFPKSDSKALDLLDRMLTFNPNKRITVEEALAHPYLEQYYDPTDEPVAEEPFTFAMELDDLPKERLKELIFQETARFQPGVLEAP
Method: (§1) The phosphorylation assay mixture typically comprised:
(§2) The phosphorylation of the polymer-conjugated substrate was carried out in a solution containing 5 μL (˜5 μg peptide) of the conjugated substrate, 10 μL of the indicated enzyme, 10 μL of ADB, and 5 μL of γ-^32P-ATP. After incubation at room temperature for 15 minutes, the reaction was stopped by spotting 10 μL of the sample solution on a phosphocellulose plate and washing with water, 1% phosphoric acid solution, water and ethanol. The radioactivity in each well was measured using a Trilux Microbeta 1450 liquid scintillation counter (Wallac).

[2] = biological target: T2, PKB (Homo sapiens, UniProt P31749); test: One-plate assay (non-covalent, medium binding plate); format: biochemical
T2 construct: made in house; host or cells: insect cells
T2 sequence (P31749 whole entry, species assumed): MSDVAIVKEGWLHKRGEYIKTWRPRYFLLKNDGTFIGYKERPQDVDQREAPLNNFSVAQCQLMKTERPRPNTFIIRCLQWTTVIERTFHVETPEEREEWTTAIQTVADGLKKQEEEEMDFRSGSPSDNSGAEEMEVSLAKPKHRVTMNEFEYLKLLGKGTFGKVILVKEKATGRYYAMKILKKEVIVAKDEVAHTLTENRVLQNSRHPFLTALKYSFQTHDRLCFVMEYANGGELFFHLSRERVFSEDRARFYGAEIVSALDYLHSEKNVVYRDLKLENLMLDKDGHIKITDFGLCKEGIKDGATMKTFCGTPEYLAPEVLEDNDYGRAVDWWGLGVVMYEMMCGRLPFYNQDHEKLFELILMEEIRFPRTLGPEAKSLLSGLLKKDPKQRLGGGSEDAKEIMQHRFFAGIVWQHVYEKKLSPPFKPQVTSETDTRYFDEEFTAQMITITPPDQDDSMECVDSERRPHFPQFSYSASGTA
Method: (§3) The one-plate assay was compared with the two-plate assay under the normal conditions employed by the high throughput screening robotic system: a mixture of 5 μL substrate (5 μg), 10 µL enzyme, 10 μL ADB and 5 μL γ-^32P ATP was incubated at room temperature for 20 minutes. In the one-plate assay, a non-covalent, medium binding plate was used.

[3] = biological target: T2, PKB; test: Phosphorylation of peptide substrate in solution, spotted on phosphocellulose plate, scintillation counting; format: biochemical
Method: as §1, §2

[4] = biological target: T2, PKB; test: Two-plate assay; format: biochemical
Method: as §3

[5] = biological target: T3, S6K (Homo sapiens, UniProt P23443); test: Phosphorylation of peptide substrate in solution, spotted on phosphocellulose plate, scintillation counting; format: biochemical; conditions: for Ratio: after/before conjugation; for Radioactivity (cpm) Before Conjugation: free peptide before conjugation to polymer; for Radioactivity (cpm) Before Conjugation / Radioactivity (cpm) After conjugation: 15 min room temperature; for Radioactivity (cpm) After conjugation: peptide after conjugation to polymer
T3 construct: made in house
T3 sequence (P23443 whole entry): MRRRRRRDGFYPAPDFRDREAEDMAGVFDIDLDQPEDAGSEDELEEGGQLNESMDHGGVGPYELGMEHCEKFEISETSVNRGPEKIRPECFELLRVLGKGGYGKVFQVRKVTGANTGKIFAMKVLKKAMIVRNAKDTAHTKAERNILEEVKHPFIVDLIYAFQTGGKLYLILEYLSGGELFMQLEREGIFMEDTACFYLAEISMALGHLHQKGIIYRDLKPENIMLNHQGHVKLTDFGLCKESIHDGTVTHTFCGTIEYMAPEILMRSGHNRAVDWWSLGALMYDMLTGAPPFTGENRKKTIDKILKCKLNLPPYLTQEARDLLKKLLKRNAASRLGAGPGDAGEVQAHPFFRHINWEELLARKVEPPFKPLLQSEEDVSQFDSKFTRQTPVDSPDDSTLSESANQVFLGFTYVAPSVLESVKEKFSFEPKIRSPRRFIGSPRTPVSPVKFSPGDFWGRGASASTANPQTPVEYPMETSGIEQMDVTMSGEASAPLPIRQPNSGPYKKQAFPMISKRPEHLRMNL
Method: as §1, §2

[6] = biological target: T4, CDK1 (Homo sapiens, UniProt P06493); test: as above; format: biochemical
T4 construct: made in house; host or cells: bacterial culture
T4 sequence (P06493 whole entry, species assumed): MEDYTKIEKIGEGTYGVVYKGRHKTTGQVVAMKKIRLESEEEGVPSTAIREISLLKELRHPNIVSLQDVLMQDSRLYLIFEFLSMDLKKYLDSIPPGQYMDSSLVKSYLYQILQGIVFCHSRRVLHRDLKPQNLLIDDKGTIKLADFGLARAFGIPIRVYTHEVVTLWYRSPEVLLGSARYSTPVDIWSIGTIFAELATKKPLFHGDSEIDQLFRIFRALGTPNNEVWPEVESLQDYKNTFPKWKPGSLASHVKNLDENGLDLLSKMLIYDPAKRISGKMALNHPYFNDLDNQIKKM
Method: as §1, §2

[7] = biological target: T5, PIM (Xenopus laevis, UniProt Q91822); test: as above; format: biochemical
T5 construct: made in house; host or cells: bacterial culture
T5 sequence (Q91822 whole entry): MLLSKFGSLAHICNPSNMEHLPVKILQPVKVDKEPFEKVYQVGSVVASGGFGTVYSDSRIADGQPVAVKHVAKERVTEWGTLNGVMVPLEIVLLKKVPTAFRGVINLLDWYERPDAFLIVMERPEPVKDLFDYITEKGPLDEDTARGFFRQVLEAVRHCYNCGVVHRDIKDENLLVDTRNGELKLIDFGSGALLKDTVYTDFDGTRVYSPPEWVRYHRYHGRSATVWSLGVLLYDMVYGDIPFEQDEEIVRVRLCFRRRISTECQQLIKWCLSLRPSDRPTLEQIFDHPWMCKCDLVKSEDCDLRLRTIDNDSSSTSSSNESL
Method: as §1, §2

[8] = test system: PAK; test: as above; format: biochemical
Method: as §1, §2

[9] = biological target: T6, PKA (Bos taurus, UniProt P00517); test: as above; format: biochemical, bovine
T6 construct: PKA was isloated from bovine heart; from tissue; host or cells: bovine heart
Method: CDK1, PAK and PIM were grown in bacterial culture at Kinetek Pharmaceuticals. PIM was isolated as described by Palaty et al. (1997) J Biol Chem 272:10514-10521. PKA was isloated from bovine heart. PKB was expressed in insect cells. S6K was isolated according to Grove et al. (1991) Mol Cell Bio 11:5541-5550. Kinase stock solutions were prepared at concentrations of 1-10 mg/mL in 150 mM Tris-Cl (pH 7.5) containing 5 mg/mL BSA and 100 mM MgCl2.
as §1, §2

[10] = biological target: T5, PIM; test: Phosphorylation of substrate immobilized on covalent, amine-binding plates; format: biochemical; conditions: amine-binding plate
Method: (§4) The polylysine-conjugated peptide substrate was diluted with a PBS buffer (pH 7.4) to a concentration of 0.1 mg/mL. Then 100 μL of the diluted solution was placed into each well of the covalent, amine-binding plate. The plate was incubated at room temperature for one hour and then washed with the PBS buffer three times and distilled water once. The substrate-immobilized plate was then phosphorylated as using standard assay conditions: 10 μL of the indicated enzyme, 15 μL of ADB and 5 μL of γ-^32P-ATP at room temperature for 15 minutes. After phosphorylation, the plate was rinsed sequentially with water, 1% phosphoric acid solution, water, and ethanol. The radioactivity in each well was determined using a Trilux Microbeta liquid scintillation counter. Two polylysine-conjugated substrates were immobilized on the covalent, amine-binding plates and phosphorylation of these immobilized polylysine-conjugated substrates was carried out. Both systems yielded reasonably high signals and the background signals on these plates were less than 500 cpm.
(§5) Effect of pH. In the case of immobilization to covalent, amine-binding plates, the pH effect was investigated. The immobilization of a conjugated-substrate to an covalent, amine-binding plate was achieved by incubating 100 μL of PBS buffer solution containing 10 μg of the conjugated-substrate at room temperature for an hour. […]

[11] = biological target: T1, ERK1; test: One-plate assay (non-covalent, medium binding plate); format: biochemical
Method: as §3

[12] = biological target: T1, ERK1; test: Two-plate assay; format: biochemical
Method: as §3

[13] = biological target: T1, ERK1; test: Phosphorylation of SEK1-CT immobilized on covalent, amine-binding strips; format: biochemical; conditions: conjugation simultaneous with phosphorylation, 15 min
Method: Immobilization of SEK1-CT on covalent, amine-binding strips was also accomplished in a stepwise procedure: the polymer was immobilized on a covalent, amine-binding plate first (1 hour), then treated with SMCC (1 hour). Conjugation of SEK1-CT to the immobilized polylysine was achieved simultaneously with the phosphorylation by ERK1. The polymers used were polylysine of MW ˜35,000 and poly(lys, ala) 1:1 copolymer of MW ˜35,000. The assay mixture comprising 5 μL of SEK1-CT, 5 μL of ADB, 10 μL of ERK1 and 10 μL of γ-^32P-ATP was incubated at room temperature for 15 minutes. An aliquot (10 μL) was then spotted on a phosphocellulose plate to stop the reaction. The radioactivity on the plate was determined using a Trilux Microbeta liquid scintillation counter. The radioactivity remaining on the surface of the wells after the plate was washed with water and 1% phosphoric acid was determined using a Beckmann liquid scintillation counter. […] Also, the immobilization of polymer-conjugated SEK1-CT on the surfaces enhanced its phosphorylation. The radioactivity observed for the unconjugated SEK1-CT may result from non-specific binding of the amine groups on SEK1-CT to the plate. This non-specific binding could be eliminated by using polylysine as the blocking agent.

[14] = biological target: T1, ERK1; test: Phosphorylation of substrate immobilized on covalent, amine-binding plates; format: biochemical; conditions: amine-binding plate
Method: as §4, §5

[15] = conjugated substrate, 20 minutes
[16] = free peptide before conjugation to polymer
[17] = peptide after conjugation to polymer

Q: For Polyhistidine, which “Enhancing effect of polymeric carrier on the substrate activity” value [1] is on record?
A: Its value is “marginal enhancing effect”.

Q: With CKRPRAASFAE [PKB-sub] as the substance, how does the “S/N ratio PKB-sub” value [2] read?
A: The value was 81.

Q: What about the “Radioactivity (cpm) PKB-sub/PKB Conj” value [2, 15] of the same substance?
A: The value was 48300 cpm.

Q: And the Ratio ([3]; after/before conjugation)?
A: The Ratio was 1.91.

Q: And the “Radioactivity (cpm) Before Conjugation” value [3, 16]?
A: The value was 54300 cpm.

Q: And the “Radioactivity (cpm) After conjugation” value [3, 17]?
A: Its value is 103900 cpm.

Q: What about the “S/N ratio PKB-sub” value [4] of the same substance?
A: Its value is 22.

Q: And the “Radioactivity (cpm) PKB-sub/PKB Free” value ([4]; free substrate, 20 minutes)?
A: The value was 38000 cpm.

Q: What does the source list for CGRTGRRNSI [CAPK-sub]?
A: Ratio [5]: 6.25; Radioactivity (cpm) Before Conjugation [5]: 10000 cpm; Radioactivity (cpm) After conjugation [5]: 62500 cpm; Ratio ([6]; after/before conjugation): 3.76; Radioactivity (cpm) Before Conjugation [6, 16]: 12500 cpm; Radioactivity (cpm) After conjugation [6, 17]: 47000 cpm; Ratio ([7]; after/before conjugation): 2.31; Radioactivity (cpm) Before Conjugation [7, 16]: 18000 cpm; Radioactivity (cpm) After conjugation [7, 17]: 41500 cpm; Ratio ([8]; after/before conjugation): 2.14; Radioactivity (cpm) Before Conjugation [8, 16]: 31050 cpm; Radioactivity (cpm) After conjugation [8, 17]: 66510 cpm; Ratio ([9]; after/before conjugation): 1.10; Radioactivity (cpm) Before Conjugation [9, 16]: 35680 cpm; Radioactivity (cpm) After conjugation [9, 17]: 39425 cpm; Radioactivity (cpm) Free substrate [10]: ≦300 cpm

Q: How did the “S/N ratio SEK1-CT” value [11] turn out when CKILDQMPATPSSPMYVD [SEK1-CT] was run?
A: The value was 117.

Q: What about the “Radioactivity (cpm) SEK1-CT/ERK1 Conj” value [11, 15] of the same substance?
A: Its value is 41000 cpm.

Q: What about the Ratio ([1]; after/before conjugation) of the same substance?
A: The Ratio was 48.28.

Q: And the “Radioactivity (cpm) Before Conjugation” value [1, 16]?
A: The value was 2390 cpm.

Q: What about the “Radioactivity (cpm) After conjugation” value [1, 17] of the same substance?
A: Its value is 115400 cpm.

Q: What about the “S/N ratio SEK1-CT” value [12] of the same substance?
A: Its value is 16.

Q: And the “Radioactivity (cpm) SEK1-CT/ERK1 Free” value ([12]; free substrate, 20 minutes)?
A: Its value is 2800 cpm.

Q: And the “Radioactivity (cpm)” value [13]?
A: Its value is 7570 cpm.

Q: What about the “Radioactivity (cpm) Free substrate” value [14] of the same substance?
A: Its value is under 500 cpm.

Q: What does the source list for CKRRRLASLR [S6K-sub]?
A: Ratio [5]: 2.82; Radioactivity (cpm) Before Conjugation [5]: 14000 cpm; Radioactivity (cpm) After conjugation [5]: 39450 cpm

Q: Which results are given for Polyarginine?
A: Radioactivity (cpm), polymer effect on the phosphorylation of SEK1-CT by ERK1 [1]: 91431 cpm; Enhancing effect of polymeric carrier on the substrate activity [1]: certain enhancement

Q: With Polylysine as the substance, how does the “Radioactivity (cpm), polymer effect on the phosphorylation of SEK1-CT by ERK1” value [1] read?
A: Its value is 211234 cpm.

Q: What about the “Enhancing effect of polymeric carrier on the substrate activity” value [1] of the same substance?
A: The value was “highest enhancing effect”.
